{"source": "paper PMC10272136", "about": "“Molecular mechanisms of Holliday junction branch migration catalyzed by an asymmetric RuvB hexamer” (Nature Communications, 2022)", "binders": {"B1": {"name": "Thermus thermophilus RuvB (enzyme, UniProt Q5SL87 1-324, looked up)", "chain": "MEDLALRPKTLDEYIGQERLKQKLRVYLEAAKARKEPLEHLLLFGPPGLGKTTLAHVIAHELGVNLRVTSGPAIEKPGDLAAILANSLEEGDILFIDEIHRLSRQAEEHLYPAMEDFVMDIVIGQGPAARTIRLELPRFTLIGATTRPGLITAPLLSRFGIVEHLEYYTPEELAQGVMRDARLLGVRITEEAALEIGRRSRGTMRVAKRLFRRVRDFAQVAGEEVITRERALEALAALGLDELGLEKRDREILEVLILRFGGGPVGLATLATALSEDPGTLEEVHEPYLIRQGLLKRTPRGRVATELAYRHLGYPPPVGPLLEP", "notes": "RuvB, Holliday junction branch migration ATPase (AAA+), Thermus thermophilus; printed MW 35,973; Purified RuvB carried endogenous ADP (native mass spectrometry); It forms the hexamer and dodecamer only in the sample with DNA and ATPγS; also called T. thermophilus RuvB; RuvB protomer; source: E. coli BL21(DE3) RipL, purified (heat step at 55 °C, Ni-NTA, Superdex 200 gel filtration)"}, "B2": {"name": "Thermus thermophilus RuvA (natural protein, UniProt Q9F1Q3 1-191, looked up)", "chain": "MIRYLRGLVLKKEAGGFVLLAGGVGFFLQAPTPFLQALEEGKEVGVHTHLLLKEEGLSLYGFPDEENLALFELLLSVSGVGPKVALALLSALPPRLLARALLEGDARLLTSASGVGRRLAERIALELKGKVPPHLLAGEKVESEAAEEAVMALAALGFKEAQARAVVLDLLAQNPKARAQDLIKEALKRLR", "notes": "source: E. coli BL21(DE3) RipL, purified (heat step at 55 °C, Ni-NTA, gel filtration)"}, "B3": {"name": "HJ DNA (HJ1-HJ4) (structured_DNA)", "DNA 1": "AGAATCTGCCGAGAGACCGAGCAGAATTCTATGTGTTTACCAAGCGCTG", "DNA 2": "CAGCGCTTGGTAAACACATAGAATTCTGCTCGGTCTGAGCCGTCTAAGA", "DNA 3": "TCTTAGACGGCTCACTGGCTGTGGGATCCGAGCTGTCTAGAGACATCGA", "DNA 4": "TCGATGTCTCTAGACAGCTCGGATCCCACAGCCAGTCTCGGCAGATTCT"}}, "key": {"[1]": {"target": "the molecule itself", "assay": "cryo-EM structure; RuvB mixed with annealed HJ DNA at 1:6 (DNA/RuvB monomer) in 20 mM Tris-HCl pH 7.5, 10 mM MgCl2, 1 mM DTT, 2 mM ATP-γ-S, 30 min at 37 °C; complex purified by gel filtration; two maps (hexamer 2.97 Å, C1; dodecamer 3.2 Å, C2)"}, "[2]": {"target": "the molecule itself", "assay": "cryo-EM structure; sample of RuvA, RuvB and HJ DNA (6:4:1 RuvB:RuvA:HJ DNA); only a RuvA-HJ DNA structure was obtained; C4 symmetry, 4.3 Å"}, "RuvB": {"target": "T1, RuvB (Thermus thermophilus, UniProt Q5SL87 1-324)", "T1 sequence": "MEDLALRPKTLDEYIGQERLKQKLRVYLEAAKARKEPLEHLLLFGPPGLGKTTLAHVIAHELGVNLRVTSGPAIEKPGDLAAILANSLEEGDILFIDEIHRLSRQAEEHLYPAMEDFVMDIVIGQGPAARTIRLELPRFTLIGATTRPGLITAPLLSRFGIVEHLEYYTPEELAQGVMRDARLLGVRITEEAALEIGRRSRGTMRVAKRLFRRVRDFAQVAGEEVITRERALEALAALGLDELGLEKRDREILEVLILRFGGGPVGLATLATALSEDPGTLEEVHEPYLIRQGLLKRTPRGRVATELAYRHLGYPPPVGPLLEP", "assay": "gel filtration; 2 mM ATPgS, 10 mM MgCl2; DNA:RuvB monomer 1:6; 20 mM Tris-HCl pH 7.5, 10 mM MgCl2, 1 mM DTT, 2 mM ATPgS, 30 min at 37 C; gel filtration in 20 mM Tris-HCl, 150 mM NaCl", "conditions": "protein: recombinant; tags: N-terminal His tag (pET-28a, NdeI/SalI); chain copies: 6; four-way junction of 4 strands, 1 copy each"}, "RuvA": {"target": "T2, RuvA (Thermus thermophilus, UniProt Q9F1Q3 1-191)", "T2 sequence": "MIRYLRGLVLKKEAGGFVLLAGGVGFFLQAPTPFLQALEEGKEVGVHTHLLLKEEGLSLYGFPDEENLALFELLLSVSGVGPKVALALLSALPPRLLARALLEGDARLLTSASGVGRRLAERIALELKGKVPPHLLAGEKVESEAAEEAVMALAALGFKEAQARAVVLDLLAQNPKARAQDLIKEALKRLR", "assay": "cryo-EM structure; from RuvA-RuvB-HJ sample; RuvA tetramer binds HJ core; 20 mM Tris-HCl pH 7.5, 10 mM MgCl2, 1 mM DTT, 2 mM ATPgS, 30 min at 37 C; gel filtration in 20 mM Tris-HCl, 150 mM NaCl", "conditions": "protein: recombinant; tags: N-terminal His tag (pET-28a, NdeI/XhoI); chain copies: 4; four-way junction of 4 strands, 1 copy each"}}, "note": "Where “and” joins values, the source holds several entries; their conditions need not be identical. Equal values may be shown once."}
{"binder": "B1", "values": [{"measurement": "stoichiometry N", "setting": "[1]", "result": "6 and 12"}]}
{"binder": "B2", "values": [{"measurement": "stoichiometry N", "setting": "[2]", "result": 4}]}
{"binder": "B3", "values": [{"measurement": "binding result", "setting": "RuvB", "result": "binds"}, {"measurement": "binding result", "setting": "RuvA", "result": "binds"}]}
